From US9730980B2 come the findings set out here.

For this experiment, the target named is NR1D1 (pCDNA-Nr1d1 expression vector).

r-h-apoA-IV showed a luciferase activity driven by the human G6pase promoter of 14.5%.
